According to patent publication US20180346555A1:

Key:
[1] = target: Alder (Aln g 1, MyBiosource, Cat# MBS 1041484) (Alder) (UniProt P38948); experiment: SPR Biacore 4000, mAb captured by anti-human Fc, 25 C
[2] = target: Apple (Mal d 1, MyBiosource, Cat# MBS 1224919) (Apple) (UniProt P43211); experiment: as above
[3] = target: Celery (Api g 1, MyBiosource, Cat# MBS 1171376) (Celery) (UniProt P49372); experiment: as above
[4] = target: European Hornbeam (Car b 1 isoform 1A & 1B, MyBiosource, Cat#MBS 1200018) (European Hornbeam) (UniProt P38949); experiment: as above
[5] = target: European Hornbeam (Car b 1 isoform 2, MyBiosource, Cat# MBS 1043940) (European Hornbeam) (UniProt P38950); experiment: as above
[6] = target: Hazel (Cor A 1, MyBiosource, Cat# MBS5304600) (Hazel) (UniProt Q08407); experiment: as above
[7] = target: natural Bet v 1 (Indoor Biotechnologies, # NA-BV1-1) (Betula verrucosa (Betula pendula)) (UniProt P15494); experiment: blocking ELISA, captured IgE of donor 22627-MN, 1 ug/mL antibody
[8] = target: natural Bet v 1 (Indoor Biotechnologies, # NA-BV1-1) (Betula verrucosa (Betula pendula)) (UniProt P15494); experiment: blocking ELISA, captured IgE of donor 23035-BL, 1 ug/mL antibody
[9] = target: natural Bet v 1 (Indoor Biotechnologies, # NA-BV1-1) (Betula verrucosa (Betula pendula)) (UniProt P15494); experiment: blocking ELISA, captured IgE of donor 23658-MD, 1 ug/mL antibody
[10] = target: natural Bet v 1 (Indoor Biotechnologies, # NA-BV1-1) (Betula verrucosa (Betula pendula)) (UniProt P15494); experiment: blocking ELISA, captured IgE of donor 23939-MH, 1 ug/mL antibody
[11] = target: natural Bet v 1 (Indoor Biotechnologies, # NA-BV1-1) (Betula verrucosa (Betula pendula)) (UniProt P15494); experiment: blocking ELISA, captured IgE of donor 25299-RJ, 1 ug/mL antibody
[12] = target: natural Bet v 1 (Indoor Biotechnologies, # NA-BV1-1) (Betula verrucosa (Betula pendula)) (UniProt P15494); experiment: blocking ELISA, captured IgE of donor 25340-RR, 1 ug/mL antibody
[13] = target: natural Bet v 1 (Indoor Biotechnologies, # NA-BV1-1) (Betula verrucosa (Betula pendula)) (UniProt P15494); experiment: blocking ELISA, captured IgE of donor 25414-CW, 1 ug/mL antibody
[14] = target: natural Bet v 1 (Indoor Biotechnologies, # NA-BV1-1) (Betula verrucosa (Betula pendula)) (UniProt P15494); experiment: blocking ELISA, captured IgE of donor 25609-MS, 1 ug/mL antibody
[15] = target: natural Bet v 1 (Indoor Biotechnologies, # NA-BV1-1) (Betula verrucosa (Betula pendula)) (UniProt P15494); experiment: blocking ELISA, captured IgE of donor 26532-CC, 1 ug/mL antibody
[16] = target: natural Bet v 1 (Indoor Biotechnologies, # NA-BV1-1) (Betula verrucosa (Betula pendula)) (UniProt P15494); experiment: blocking ELISA, captured IgE of donor 29718-MW, 1 ug/mL antibody
[17] = target: natural Bet v 1 (Indoor Biotechnologies, # NA-BV1-1) (Betula verrucosa (Betula pendula)) (UniProt P15494); experiment: dose-response blocking ELISA, captured IgE of donor 23939-MH, at 1 ug/mL antibody
[18] = target: natural Bet v 1 (Indoor Biotechnologies, # NA-BV1-1) (Betula verrucosa (Betula pendula)) (UniProt P15494); experiment: dose-response blocking ELISA, captured IgE of donor 25340-RR, at 1 ug/mL antibody
[19] = target: natural Bet v 1 (Indoor Biotechnologies, # NA-BV1-1) (Betula verrucosa (Betula pendula)) (UniProt P15494); experiment: dose-response blocking ELISA, captured IgE of donor 25609-MS, at 1 ug/mL antibody

Chain of Hazel (Cor A 1, MyBiosource, Cat# MBS5304600) (Hazel) (Q08407 2-160 limits assumed): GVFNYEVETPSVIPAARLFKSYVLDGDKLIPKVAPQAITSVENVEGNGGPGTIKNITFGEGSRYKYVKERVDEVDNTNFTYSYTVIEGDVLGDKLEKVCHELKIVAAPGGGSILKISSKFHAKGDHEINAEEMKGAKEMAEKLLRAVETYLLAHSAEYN
Chain of European Hornbeam (Car b 1 isoform 2, MyBiosource, Cat# MBS 1043940) (European Hornbeam) (P38950 2-160 limits assumed): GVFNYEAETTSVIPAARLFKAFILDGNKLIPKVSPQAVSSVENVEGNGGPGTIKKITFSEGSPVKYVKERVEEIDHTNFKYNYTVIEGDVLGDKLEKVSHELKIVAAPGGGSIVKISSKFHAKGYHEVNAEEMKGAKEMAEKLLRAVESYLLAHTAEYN
Chain of Celery (Api g 1, MyBiosource, Cat# MBS 1171376) (Celery) (P49372 whole entry, canonical isoform): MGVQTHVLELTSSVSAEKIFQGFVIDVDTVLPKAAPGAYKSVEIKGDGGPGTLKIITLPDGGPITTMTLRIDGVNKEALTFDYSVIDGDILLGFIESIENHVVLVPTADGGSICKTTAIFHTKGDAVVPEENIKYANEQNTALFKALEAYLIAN
Chain of Apple (Mal d 1, MyBiosource, Cat# MBS 1224919) (Apple) (P43211 2-159 limits assumed): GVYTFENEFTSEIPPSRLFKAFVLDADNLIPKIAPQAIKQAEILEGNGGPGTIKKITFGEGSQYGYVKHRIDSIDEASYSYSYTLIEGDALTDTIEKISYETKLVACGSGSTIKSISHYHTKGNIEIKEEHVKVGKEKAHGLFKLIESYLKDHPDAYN
Chain of Alder (Aln g 1, MyBiosource, Cat# MBS 1041484) (Alder) (P38948 2-160 limits assumed): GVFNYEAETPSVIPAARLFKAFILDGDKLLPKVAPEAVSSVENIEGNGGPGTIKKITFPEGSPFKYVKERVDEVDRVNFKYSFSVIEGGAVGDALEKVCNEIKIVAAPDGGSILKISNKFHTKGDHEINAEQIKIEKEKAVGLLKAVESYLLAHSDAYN
Chain of European Hornbeam (Car b 1 isoform 1A & 1B, MyBiosource, Cat#MBS 1200018) (European Hornbeam) (P38949 2-160): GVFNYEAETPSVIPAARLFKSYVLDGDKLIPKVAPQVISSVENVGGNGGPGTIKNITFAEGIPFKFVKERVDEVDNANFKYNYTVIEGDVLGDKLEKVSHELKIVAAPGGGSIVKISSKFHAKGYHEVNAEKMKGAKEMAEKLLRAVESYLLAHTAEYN

Row | 100 nM Analyte Bound (RU) [1] | 100 nM Analyte Bound (RU) [2] | 100 nM Analyte Bound (RU) [3] | 100 nM Analyte Bound (RU) [4] | 100 nM Analyte Bound (RU) [5] | 100 nM Analyte Bound (RU) [6] | Percent Blocking [7] | Percent Blocking [8] | Percent Blocking [9] | Percent Blocking [10] | Percent Blocking [11] | Percent Blocking [12] | Percent Blocking [13] | Percent Blocking [14] | Percent Blocking [15] | Percent Blocking [16] | Percent Blocking [17] | Percent Blocking [18] | Percent Blocking [19] | Substance
1 | 0 RU | 0 RU | -1 RU | 0 RU | 0 RU | 1 RU |  |  |  |  |  |  |  |  |  |  |  |  |  | Isotype Control (antibody)
2 |  |  |  |  |  |  | -3% | -5% | -3% | -2% | -4% | -1% | -4% | -2% | -4% | -2% | 16.8% | 10.6% | 8.8% | Isotype control (antibody)
